In patent publication US7345022B2, “Anti-fibril peptides” (Board of Supervisors of Louisiana State University and …, priority 2002, dated 2008):
*1 amine or outer side, *2 acyl side, *3 side chain or, on linkers, in order; H or OH if unused. Where no end group is shown, it is not given here. [ ]: non-standard residue; d: D form. Dbzg = C-alpha,alpha-dibenzylglycine, O=C(C(Cc1ccccc1)(Cc1ccccc1)N[*:1])[*:2]; Dibg = C-alpha,alpha-diisobutylglycine, CC(C)CC(CC(C)C)(N[*:1])C(=O)[*:2]; Dpg = CCCC(N)(CCC)C(=O)O

Experiments:
[1] = Self-aggregation of the peptide; format: physicochemical
Description: Other strategies have included combinatorial approaches to screen short pentapeptides with L- or D-amino acids to develop small, mostly hydrophobic, inhibitors of Aβ1-40 fibril formation. […] Thus, these peptides can themselves become part of high order aggregates.
(§1) wherein Dibg is C^α,α-diisobutylglycine; Dbzg is C^α,α-dibenzylglycine; and Dpg is C^α,α-dipropylglycine. The AMY-1 peptide inhibits aggregation at concentrations of ˜5 μM when incubated with the amyloidogenic peptide Aβ10-35 in phosphate buffer at 37° C., under conditions where the Aβ10-35 peptide alone would form amyloid fibrils. […] AMY-1 is also depicted in FIG. 3. FIG. 4 depicts the manner in which AMY-1 blocks further extension of a growing β-sheet formed from the Aβ peptide.
(3) AMY-2 self-aggregates at 50 μM.

Aβ1-40 = Aβ1-40 (Homo sapiens, UniProt P05067); test: Interaction with Aβ1-40: aggregate and fibril formation (visual, scanning probe microscopy); format: biochemical; settings: for product of the interaction with Aβ1-40: preliminary studies
Description: (3) AMY-2 self-aggregates at 50 μM. The interaction of β-Amyloid and AMY-2 is apparent visually. […] SPM images were taken of adsorbed peptide material on a hydrophilic surface (mica or muscovite). […] These non-fibrillar aggregates were ˜100 nm in height and appeared as clusters of aggregated peptide material. […] Another study to explore the later β-Amyloid aggregation (i.e., fibril formation) produced an image of elongated fibrils greater than 10 μm long and 8 nm high.

[2] = prior pentapeptide inhibitors of Aβ1-40 fibril formation; cited from earlier work
PC-12 cells = settings: MTT, reported by Pallitto et al.; cited from earlier work
Aβ10-35 = target: T1, Aβ10-35 (Homo sapiens, UniProt P05067); test: Inhibition of Aβ10-35 aggregation on incubation in phosphate buffer; format: biochemical; settings: incubated with Aβ10-35 in phosphate buffer at 37° C.
T1 construct: incubated with the amyloidogenic peptide Aβ10-35 in phosphate buffer at 37° C
Description: as §1

[3] = system: preformed β-amyloid fibrils; test: Dissolution of preformed fibrils (SPM and TEM); format: biochemical; settings: preliminary
Description: Preliminary experiments have confirmed that the novel peptides can promote the dissolution of existing fibrils. The ability of the peptide AMY-1 to dissolve preformed fibrils was assessed with both scanning probe microscopy (SPM) and transmission electron microscopy (TEM). […] A twisting appeared in the middle of the length of the fibril, as if the AMY-1 peptide was interpolating into it.

[4] = adsorbed on hydrophilic surface (mica or muscovite), β-Amyloid1-40

Sequence of Aβ1-40 (P05067 672-711 limits assumed): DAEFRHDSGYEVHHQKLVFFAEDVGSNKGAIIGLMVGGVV
Sequence of preformed β-amyloid fibrils (P05067 681-706 limits assumed): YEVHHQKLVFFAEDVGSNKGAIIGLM

(Lys)7-Dibg-Val-Dbzg-Phe-Dpg-NH2 (KKKKKKK[Dibg]V[Dbzg]F[Dpg]-NH2; N-terminus assumed; SMILES CCCC(CCC)(NC(=O)[C@H](Cc1ccccc1)NC(=O)C(Cc1ccccc1)(Cc1ccccc1)NC(=O)[C@@H](NC(=O)C(CC(C)C)(CC(C)C)NC(=O)[C@H](CCCCN)NC(=O)[C@H](CCCCN)NC(=O)[C@H](CCCCN)NC(=O)[C@H](CCCCN)NC(=O)[C@H](CCCCN)NC(=O)[C@H](CCCCN)NC(=O)[C@@H](N)CCCCN)C(C)C)C(N)=O) [AMY-2]
concentration at which the peptide self-aggregates ([1]; preliminary studies, data not shown): 50 µM
fibril formation (later aggregation study, image) (Aβ1-40; 1:1 ratio of 50 μM β-Amyloid and peptide): no fibril formation
visual appearance of the solution (Aβ1-40; added to β-amyloid at 1:1 ratio, 50 μM each, room temperature): the solution rapidly turned opaque
height of the non-fibrillar aggregates (SPM) (Aβ1-40; [4]): ~100 nm
morphology of the interaction product (SPM images) (Aβ1-40; [4]): large, amorphous aggregates
product of the interaction with Aβ1-40 (Aβ1-40; data not shown): large, non-fibril aggregate

KLVFF
self-aggregation (literature) [2]: aggregate and form insoluble precipitates
protective effect against Aβ toxicity (PC-12 cells): protective effect against Aβ toxicity

KLVF (listed as Homo sapiens)
protective effect against Aβ toxicity (PC-12 cells): protective effect against Aβ toxicity

Lys-Dibg-Val-Dbzg-Phe-Dpg-(Lys)6-NH2 [AMY-1]
concentration at which the peptide inhibits aggregation (Aβ10-35): ~5 µM
self-aggregation [1]: does not aggregate with itself
fibril formation after long incubation with Aβ1-40 (Aβ1-40; 4.5 month-incubation, preliminary, data not shown): no massive fibrils were formed
product of the interaction with Aβ1-40 (Aβ1-40; data not shown): small, non-fibril aggregate
effect on preformed fibrils, SPM image ([3]; SPM at 10×10 μm^2, on mica): less adsorbed Aβ protein on mica
effect on preformed fibrils, TEM ([3]; preformed β-amyloid, TEM): the fibrillar structures were substantially frayed
